Measurements reported in FireProtDB (doi:10.1016/s0301-4622(02)00027-3).

B1: Endoglucanase C, P0C2S3 (parent)
chain: MVSFKAGINLGGWISQYQVFSKEHFDTFITEKDIETIAEAGFDHVRLPFDYPIIESDDNVGEYKEDGLSYIDRCLEWCKKYNLGLVLDMHHAPGYRFQDFKTSTLFEDPNQQKRFVDIWRFLAKRYINEREHIAFELLNEVVEPDSTRWNKLMLEYIKAIREIDSTMWLYIGGNNYNSPDELKNLADIDDDYIVYNFHFYNPFFFTHQKAHWSESAMAYNRTVKYPGQYEGIEEFVKNNPKYSFMMELNNLKLNKELLRKDLKPAIEFREKKKCKLYCGEFGVIAIADLESRIKWHEDYISLLEEYDIGGAVWNYKKMDFEIYNEDRKPVSQELVNILARRKT

Variants of: B1
Conditions: Acetivibrio thermocellus, pH 7.2, structure 1CEC, whole UniProt chain shown; for Tm / change of melting temperature, mutant - wild type (higher = more stable): Thermal, DSC, Tris 20 mM, reversible: No
[1] = 25 °C, GdnHCl, CD, Tris 50 mM, reversible: yes

Variant | Tm [°C] | change of melting temperature, mutant - wild type (higher = more stable) [°C] | ddG of mutation (higher = less stable) [1] [kcal/mol] | denaturant midpoint (higher = more stable) [1] [M] | unfolding free energy [1] [kcal/mol]
N220D T222A | 68.3 | -2.1 | – | – | –
N9D | 63.9 | -6.5 | – | – | –
E333G | 69.4 | -1 | – | – | –
I293A | 67.6 | -2.8 | – | – | –
A6C R340C | 73.4 | – | -1.73 | 2.61 | 8.03
